Measurements: the RNAGym collection of RNA variant scans (doi:10.1073/pnas.2313332121)

B1: TPR t1 (parent)
chain: GACCAAUCUGCCCUCAGAGCUCGAGAACAUCUUCGGAUGCAGAGGAGGCAGGCUUCGGUGGCGCGAUAGCGCCAACGUCCUCAACCUCCAAUGCAUCCCACCACAUGAUGAUGCCUGAAGAGCCUUGGUUUUUUG

Variants of: B1
Experiment: polymerase ribozyme fitness, log enrichment relative to wild type (log ratio); higher = more active; in vitro selection for triplet polymerase activity
In short: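 Mutant libraries for each subunit of a heterodimeric triplet polymerase ribozyme were made by PCR and then transcribed. Each library underwent one round of in vitro selection in triplicate: annealing with a biotinylated primer, the partner subunit and triplets, frozen incubation at −7 °C, gel excision of extended constructs, streptavidin-bead capture and RT-PCR. Input and output libraries were Illumina-sequenced, and only genotypes with ≥10 input reads and ≥1 read per output were kept. Fitness is the logarithm, base 2, of genotype enrichment over wild-type enrichment, computed from inverse-variance-weighted replicate averages.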

Point of comparison: GACCAAUCUGCCCUCAGAGCUCGAGAACAUCUUCGGAUGCAGAGGAGGCAGGCUUCGGUGGCGCGAUACCGCCAACGUCCUCAACCUCCAAUGCAUCCCACCAUAUGAUGAUGCCUGAAGAGCCUUGGUUUUUUG, “polymerase ribozyme fitness (log ratio)” value -1.49. Against it:
- GACCAAUCUGCCCUCAGCGCUCGAGAACAUCUUCGGAUGCAGAGGAGGCAGGCUUCGGUGGCGCGAUAGCGCCAACGUCCUCAACCUCCAAUGCAUCCCACCACAUGAUGAGGCCUGAAGAGCCUUGGUUUUUUG — lower, -3
- GACCAAUCUGCCCUCAGAGCUCGAGAACAUCUUCGGAUGCAGAGGAGGCAGGCUUCGGUGGCGCGAUAGCGCCCACGUCCUCAACCUCCAAUGCAUCCCCCCACAUGAUGAUGCCUGAAGAGCCUUGGUUUUUUG — higher, -1.06
- GACCAAUCUGCCCUCAGAGCUCGAGAACAUCUUCGGAUGCAGAGGAGCCAGGCUUCGGUGGCGCGAUAGCGCCAACGUCCUCAACCGCCAAUGCCUCCCACCACAUGAUGAUGCCUGAAGAGCCUUGGUUUUUUG — lower, -3
- GACCAAUCUGCCUUCAGAGCUCGAGAACAUCUUCGGAUGCAGAGGAGGCAGGCUUCGGUGGCGCGAUAGCGACAACGUCCUCAACCUCCAAUGCAUCCCACCACAUGAUGAUGCCUGAAGAGCCUUGGUUUUUUG — higher, 0.891
- GACCAAUCUGCGCUCAGAGCUCGAGAACUUCUUCGGAUGCAGAGGAGGCAGGCUGCGGUGGUGCGAUAGCGCCAACGUCCUCAACCUCCAAUGCAUCCCACUACAUGAUGAUGCCUAAAGAGCCUUGGUUUUUUG — lower, -4.8
- GACCAAUCUGGCCUCAGAGCUCGAGAACAUCUUCGGAUGCAGAGGAGGCAGGCUUCGGUGGCGCGAUAGCGCCAACGUCCUCUACCUCCAAUGCAUCCCACCACAUGAUGAUGCCUGAAGAGCCUGGGUUUUUUG — higher, -0.958
- GACCAAUCUGCCCUCAGAGCUCGAGAUCAUCUUCGGAUGCAGAGGAGGCAGGCUUCGGUGGUGCGAUAGCGCCAACGUCCUCAACCUCCAAUGCAUCCCACCACAUGAUGAUGCCUGAAGAGCCAUGGUUUUUUG — lower, -3.89
- GACCAAUCUGCCCUCAGAGCUCGAGAACAUCUUCGGAUGCAGAGGAGGCAGGCUUCGGUGGCGCGAUAGCGCCAACGUCCUCAACCUCCAAUGCAUACCACCACAUGAUGAUGCCUGAAAAGCCUUGGUUUUUUG — lower, -3.9
- GACCAAUCUGCCCACAGAGCUCGAGAACAUCUUCGGAUGCAGAGGAGGCAGGCUUCGGUGGCGCGAUAGCGCCAACGUCCUCUACAUCCAAUGCAUCCCACCACAUGAUGAAGCCUGAAGAGCCUUGGUUAUUUG — lower, -2.42
- GACCAAACUGCCCUCAGAGCUCGAGAACAUCUUCGGAUGCAGAGGAGGCAGGCUUCGGUGGCGCGAUAGCGCGAACGUCGUCAACCUCCAAUGCAUCCCACCACAUGAUGAUGCCUGAAGAGCCUUGGUUUUUUG — lower, -6.07
- GACGAAUCUGCCCUCAGAGCUCGAGAACAUCUUCGGAUGCAGAUGAGGCAGGCUUCGGUGGCGCGAUAGCGCCAACGGCCUCAACCUCCAAUGCAGCCCACCACACGAUGAUGCCUGAAGAGCCUUGGUUUUUUG — lower, -4.97
- GACCAAUCUGCCCUCAGAGCUCGAGAACAUCUUCGGAUGCAGAGGAGGCAGGCUUCGGUGGCGCGAUAGAGGCAACGUCCUCAACCUCCAAUGCAUCCCACCACAUGAUGAUGCCUGAAGAGCCUUGGUUUUUUG — lower, -4.19
- GACCAAUCUGCCCUCAGAGCUCGAGAACAUCUUCGGAUGGCGAGGAGGCAGGCUUCGGUGGCGCGAUAGCGCCAACGUCCUCAACCUCCAAUGCAUCCCACCACAUGAUGAUGCCUGAAGAGCCUUGGUUUUUUG — lower, -3.16
- GACCAAUCUGCCCUCAGCGCUCGAGAACAUCUUCGGAUGCAGCGGAGGCAGGCUUCGGUGGCGCGAUAGCGCCAACGUCCUCAACCUCCAAUGCAUCCCACCACAUGAUGAUACCUGAAGAGCCUUGGUUUUUUG — lower, -2.81
- GACCAAUCUGCCCUCAGAGCUCGAGAACAUCUUCGGAUGCAGAGGAGGUAGGCUUCGGUGGCACGAUAGCGCCAACGUCCUCAACCUCCAAGGCAUCCCACCACAUGAUGAUGCCUGAAGGGCCUUGGUUUUUUG — lower, -3.84
- GACCAAUCUGCCCUCAGAGCUCGAGAACAUCUUCGGAUGCCGAGGAGGCAGGCUUCGGUGGCGCGAUAGCGCCAACGUCCUCAACCUCCAAUGCAUCCCACCAAAUGAUGAUGCCUGAAGAACCUUGGUUUUUUG — lower, -3.8
- GACUAAUCUGCCCUCAGAGCUCGAGAACAUCUUCGGAUGCAGAGGAGGCAGGCUUCGGUGGCGCGAUAGUGCCAACGUCCUCAAGUUCCAAUGCAUCCCACCACAUGAUGAUGCCUGAAGAGCCUUGGUUUUUUG — lower, -2.03
- GACCAAUCUGCCCUCAGAGCUCGAGAACAUCUUCGGAUGCAGAGGAGGCAGGCUUCGGCGGCGCGAUAUCGCCAACGUCCACAACCUCCAAUGCAUCCCACCACAUGAUGAUGCCUGAAGAGCCUUGGUUUUUUG — within 0.2 log units, -1.48
- GACCAAUCUGCCCUCAGAGCUCGAGAACAUCUUCGGAUGCAGAGGAGGCAGGCCUCGGUGGCGCGAUAGCGCCAACGUCCUCAACCUUCAAUGAAUCCCAUCACAUGAUGAUGCCUGAAGAGCCUUGGUUUUUUG — higher, -0.155
- GACCAAUCUGCCCUCAGAGCUCGAGAACAUCUUCGGAUGCAGAGGAGGCAGGCUUCGGUGGCGCGAUAGCGCCAACGUCCUCAACCUCCAAUGCAUCCCACCAAAUGAUGAUGCCUGAAGAGCCUUGGUUUUAUG — within 0.2 log units, -1.68
